Data as given in patent publication US20050170502A1, “Methods for maintaining hepatocytes in culture and for differentiating embryonic stem cells along a hepatocyte lineage” (REGENTS OF THE UNIVERSITY OF CALIFORNIA, priority 2003, published 2005).

Tested on: mouse ES cells (ES-D3)
Assay: Hepatocyte-specific gene expression in differentiated mouse ES cells, real-time quantitative RT-PCR
Conditions: mouse ES cells, IMDM, collagen type I, day 33, FIG. 2A
Description: Mouse ES cell line ES-D3 and mouse STO fibroblasts were obtained from the American Type Culture Collection, Manassas, Va. ES cells were expanded on STO fibroblast feeder layers in Dulbecco's modified Eagle's medium (DMEM) (unless specified, cell culture supplies were from Invitrogen, Carlsbad, Calif.) containing 15% fetal bovine serum (FBS), 1 mM L-glutamine, 60 μM non-essential amino acid solution, 0.1 mM 2-mercaptoethanol, 10 mM HEPES (Sigma-Aldrich, Saint Louis, Mo.), 1400 U/ml leukemia inhibitory factor (LIF) (Chemicon International, Temecula, Calif.), and penicillin/streptomycin at standard concentrations. To prepare feeder layers, STO fibroblasts were cultured until confluent and treated with 10 μg/ml mitomycin C (Sigma-Aldrich) for 4 hours. […]
Total RNA was extracted with RNeasy Mini Kit (Qiagen, Valencia, Calif.). Real time quantitative RT-PCR was employed for the determination of gene expression as described in detail previously by our group (Wege, H. et al., Gastroenterology 124:432-444 (2003)). […] Relative mouse or human gene expression analysis (ΔΔCT) was performed by real-time quantitative PCR with the ABI Prism 7700 Sequence Detection System and SYBR PCR Green Master Mix or TaqMan PCR Master Mix (Applied Biosystems, Foster City, Calif.). […] Normalized expression of hepatocyte-specific genes was compared to levels detected in primary adult mouse or human hepatocytes.

B1: OnM: oncostatin M (protein, UniProt P13725 26-221, looked up)
Oncostatin-M: AAIGSCSKEYRVLLGQLQKQTDLMQDTSRLLDPYIRIQGLDVPKLREHCRERPGAFPSEETLRGLGRRGFLQTLNATLGCVLHRLADLEQRLPKAQDLERSGLNIEDLEKLQMARPNILGLRNNIYCMAQLLDNSDTAEPTKAGRGASQPPTPTPASDAFQRKLEGCRFLHGYHRFMHSVGRVFSKWGESPNRSRR
albumin gene expression (effect of individual growth and differentiation factors): only minor positive or even negative effects
